Laboratory results reported in PMC7486707 (Proceedings of the National Academy of Sciences of the …, 2020).

Target: T1, STM-His6 (SHOOT …) (Arabidopsis thaliana, UniProt Q38874 1-382)
T1 sequence (looked up): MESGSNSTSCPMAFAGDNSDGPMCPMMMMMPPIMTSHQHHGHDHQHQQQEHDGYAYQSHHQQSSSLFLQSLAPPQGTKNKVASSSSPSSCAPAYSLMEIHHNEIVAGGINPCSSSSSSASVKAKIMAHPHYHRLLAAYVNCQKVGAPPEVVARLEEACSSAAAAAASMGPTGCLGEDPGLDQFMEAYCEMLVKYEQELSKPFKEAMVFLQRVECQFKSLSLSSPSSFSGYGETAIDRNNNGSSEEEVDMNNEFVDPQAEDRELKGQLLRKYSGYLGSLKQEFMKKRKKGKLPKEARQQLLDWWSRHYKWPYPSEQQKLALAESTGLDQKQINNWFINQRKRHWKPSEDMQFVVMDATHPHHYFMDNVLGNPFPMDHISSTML
Test: pull-down

B1: GST-WUS (WUSCHEL) (natural protein, Arabidopsis thaliana, UniProt Q9SB92 1-292, looked up)
chain: MEPPQHQHHHHQADQESGNNNNNKSGSGGYTCRQTSTRWTPTTEQIKILKELYYNNAIRSPTADQIQKITARLRQFGKIEGKNVFYWFQNHKARERQKKRFNGTNMTTPSSSPNSVMMAANDHYHPLLHHHHGVPMQRPANSVNVKLNQDHHLYHHNKPYPSFNNGNLNHASSGTECGVVNASNGYMSSHVYGSMEQDCSMNYNNVGGGWANMDHHYSSAPYNFFDRAKPLFGLEGHQEEEECGGDAYLEHRRTLPLFPMHGEDHINGGSGAIWKYGQSEVRPCASLELRLN
B1: binds.
